Measurements reported in publication PMC10953581, “SHMT2 Mediates Small‐Molecule‐Induced Alleviation of Alzheimer Pathology Via the 5′UTR‐dependent ADAM10 Translation Initiation”.

T1: human SUMO-SHMT2 (Homo sapiens, UniProt P34897 1-504)
T1 sequence: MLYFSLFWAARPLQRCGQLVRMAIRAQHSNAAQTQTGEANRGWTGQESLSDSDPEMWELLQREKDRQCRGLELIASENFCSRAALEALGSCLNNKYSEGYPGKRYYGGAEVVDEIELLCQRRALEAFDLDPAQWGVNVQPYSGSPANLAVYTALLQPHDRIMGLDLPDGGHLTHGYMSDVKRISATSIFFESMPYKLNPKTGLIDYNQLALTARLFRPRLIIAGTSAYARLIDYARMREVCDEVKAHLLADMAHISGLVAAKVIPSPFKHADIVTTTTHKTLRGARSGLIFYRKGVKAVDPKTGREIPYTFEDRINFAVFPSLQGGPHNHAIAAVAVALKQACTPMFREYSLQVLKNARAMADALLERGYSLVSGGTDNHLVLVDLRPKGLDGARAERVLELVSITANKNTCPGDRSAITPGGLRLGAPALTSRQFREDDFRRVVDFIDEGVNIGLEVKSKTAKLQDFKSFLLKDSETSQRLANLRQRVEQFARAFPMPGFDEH

T2: murine SUMO-SHMT2 (Mus musculus, UniProt Q9CZN7 1-504)
T2 sequence: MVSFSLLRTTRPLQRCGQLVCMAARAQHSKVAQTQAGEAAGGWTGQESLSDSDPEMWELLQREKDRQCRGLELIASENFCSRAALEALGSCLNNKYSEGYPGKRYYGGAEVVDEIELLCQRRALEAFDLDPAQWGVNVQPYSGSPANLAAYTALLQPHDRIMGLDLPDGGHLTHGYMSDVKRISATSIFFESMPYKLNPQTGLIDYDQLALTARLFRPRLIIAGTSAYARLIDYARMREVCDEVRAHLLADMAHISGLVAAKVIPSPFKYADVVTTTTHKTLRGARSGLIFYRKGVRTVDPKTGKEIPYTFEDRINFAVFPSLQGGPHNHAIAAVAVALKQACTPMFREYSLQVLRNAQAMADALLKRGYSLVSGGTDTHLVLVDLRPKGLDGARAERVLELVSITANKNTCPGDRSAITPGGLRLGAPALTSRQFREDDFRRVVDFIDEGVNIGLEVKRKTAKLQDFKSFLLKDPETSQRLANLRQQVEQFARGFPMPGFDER


The binders below were run against T1, human SUMO-SHMT2 (assay: EMSA; RNA EMSA (LightShift kit): 10 pmol biotin-RNA, 6 ug protein, 1X EMSA binding buffer, 5% glycerol, 0.1 mg/mL tRNA, 20 uL, 30 min, room temperature; salt and pH not stated). Details: protein: recombinant; tags: SUMO; chain copies: 4; label: 5' biotin.

Binder | binding result
GAGAGAAUAUUUAACGAGCAAGGGA (ssRNA) [MUT176-200] | no binding
GGAAACGAACUAUUUGUAUUUA (ssRNA) [MUT223-244] | no binding
UGAGUUUCGAAGUAUUUGGG (ssRNA) [MUT156-175] | no binding
GGACGGGUAGGGGCUUUAUGUA (ssRNA) [MUT69-90] | no binding
GGACGGGUAGGGGCGGGAGGUA (ssRNA) [69-90] | binds
UGAGUUUCGAAGGAGGGGGG (ssRNA) [156-175] | binds
GAGAGAAGAGGGAACGAGCAAGGGA (ssRNA) [176-200] | binds
GGAAACGAACGAGGGGGAGGGA (ssRNA) [223-244] | binds
AGGAAAGCGGGGAAAGGAGGAA (ssRNA) [201-222] | binds
AGUAAAUCGGGUAAAUGAGGAA (ssRNA) [MUT201-222] | no binding

What follows are binders tested against T2, murine SUMO-SHMT2 in the same assay as above. Details: protein: recombinant; tags: SUMO; label: 5' biotin.

Binder | binding result
GUUUUGGCGGAGCAGGGCGCGCGGCUGGG (ssRNA) [mouse 58-86] | no binding
GAGGGCAGGGAAGCGGGGAAGGGAGGAAG (ssRNA) [mouse 1-29] | binds
GAAGAGGCCGAGGGGGAGGGAGGGCCCU (ssRNA) [mouse 30-57] | binds
